In patent publication US20240181073A1, “Antibody-Drug Conjugates Comprising an Anti-BCMA Antibody” (Sorrento Therapeutics, Inc., priority 2021, published 2024):
Residue numbers refer to the chain shown, from its start.

T1: Human BCMA (B Cell Maturation Antigen) (human, UniProt Q02223 1-184)
T1 sequence: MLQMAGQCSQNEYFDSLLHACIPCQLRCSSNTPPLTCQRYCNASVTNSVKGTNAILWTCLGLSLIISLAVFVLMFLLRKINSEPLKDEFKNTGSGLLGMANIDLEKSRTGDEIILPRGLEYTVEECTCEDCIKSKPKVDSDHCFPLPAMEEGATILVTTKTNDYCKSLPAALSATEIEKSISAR

B1: BCMA-AB2-3: Compound 3 conjugated with anti-BCMA antibody clone BCA7-2E1 (AB2) (conjugate)
VH: EVQLVESGGGLVKPGGSLRLSCAASGFTSSTAWMSWVRQAPGKGLEWVGRIKSKSDGGTTDYAAPVKGRFTISRDDSKNTLFLQMNSLKTEDTAVYYCAKGGGTYGYWGQGTTVTVSS
VL: QSALTQPASVSGSPGQSVTISCTGTSSDGGGHTYVSWYQQHPGKAPKLMIYDVSNRPSWVSNRFSGSKSGNTASLTISGLQAEDEADYYCGSYTSSGSYVFGTGTKLTVL
B2: anti-BCMA-AB1-Compound 4 (antibody, human IgG1, V domains shown)
VH: B1 VH
VL: B1 VL with A3V, D28A, G29H, T33Y, W59G
modifications: drug-linker Compound 4 on antibody cysteine thiols (C-lock conjugation; positions not stated)
B3: anti-BCMA-AB1-Compound 5 (antibody, human IgG1, V domains shown)
VH: B1 VH
VL: B1 VL with A3V, D28A, G29H, T33Y, W59G
modifications: drug-linker Compound 5 on antibody cysteine thiols (C-lock conjugation; positions not stated)
B4: anti-BCMA-AB1-Compound 6 (antibody, human IgG1, V domains shown)
VH: B1 VH
VL: B1 VL with A3V, D28A, G29H, T33Y, W59G
modifications: drug-linker Compound 6 on antibody cysteine thiols (C-lock conjugation; positions not stated)
B5: anti-BCMA-AB1-Compound 7 (antibody, human IgG1, V domains shown)
VH: B1 VH
VL: B1 VL with A3V, D28A, G29H, T33Y, W59G
modifications: drug-linker Compound 7 on antibody cysteine thiols (maleimide conjugation; positions not stated)
B6: anti-BCMA-AB1-Compound 8 (antibody, human IgG1, V domains shown)
VH: B1 VH
VL: B1 VL with A3V, D28A, G29H, T33Y, W59G
modifications: drug-linker Compound 8 on antibody cysteine thiols (maleimide conjugation; positions not stated)
B7: ADC-50 (conjugate)
VH: B1 VH
VL: B1 VL with A3V, D28A, G29H, T33Y, W59G
B8: ADC-51 (conjugate)
VH: B1 VH
VL: B1 VL with A3V, D28A, G29H, T33Y, W59G
B9: ADC-52 (conjugate)
VH: B1 VH
VL: B1 VL with A3V, D28A, G29H, T33Y, W59G
B10: ADC-53 (conjugate)
VH: B1 VH
VL: B1 VL with A3V, D28A, G29H, T33Y, W59G
B11: anti-BCMA-AB1-Compound 1 (antibody, human IgG1, V domains shown)
VH: B1 VH
VL: B1 VL with A3V, D28A, G29H, T33Y, W59G
modifications: drug-linker Compound 1 on antibody cysteine thiols (positions not stated)
B12: anti-BCMA-AB1-Compound 2 (antibody, human IgG1, V domains shown)
VH: B1 VH
VL: B1 VL with A3V, D28A, G29H, T33Y, W59G
modifications: drug-linker Compound 2 on antibody cysteine thiols (positions not stated)
B13: anti-BCMA-AB2-Compound 3 (antibody, V domains shown)
VH: B1 VH
VL: B1 VL
modifications: drug-linker Compound 3 on antibody cysteine thiols (positions not stated)
B14: anti-BCMA-AB2-Compound 4 (antibody, V domains shown)
VH: B1 VH
VL: B1 VL
modifications: drug-linker Compound 4 on antibody cysteine thiols (positions not stated)
B15: anti-BCMA-AB2-Compound 5 (antibody, V domains shown)
VH: B1 VH
VL: B1 VL
modifications: drug-linker Compound 5 on antibody cysteine thiols (positions not stated)
B16: anti-BCMA-AB2-Compound 6 (antibody, V domains shown)
VH: B1 VH
VL: B1 VL
modifications: drug-linker Compound 6 on antibody cysteine thiols (positions not stated)
B17: anti-BCMA-AB2-Compound 7 (antibody, V domains shown)
VH: B1 VH
VL: B1 VL
modifications: drug-linker Compound 7 on antibody cysteine thiols (positions not stated)
B18: anti-BCMA-AB2-Compound 8 (antibody, V domains shown)
VH: B1 VH
VL: B1 VL
modifications: drug-linker Compound 8 on antibody cysteine thiols (positions not stated)

system: NCI-H929 tumor xenograft; test: In vivo efficacy, NCI-H929 tumor xenograft in SCID beige mice; set-up: species or system CB17 SCID beige mice; settings: Experiment IV, FIG. 6; both regimens
Description: Female CB17 SCID beige mice, 6 weeks of age, were purchased from Charles River Laboratories.
Human multiple myeloma tumor cell lines NCI-H929 and OPM2 were cultured and expanded in RPMI 1640 medium supplemented with 10% FBS, 100 units/ml of penicillin and 100 μg/ml of streptomycin at 37° C. in a 5% CO2 humidified environment for a period of 2-3 weeks before harvesting for implantation. Cell viability determined by Trypan blue dye exclusion assay was >90% before implantation. 5 million of OPM2 or NCI-H929 cells in 100 μl of PBS—Matrigel 1:1 (v/v) mixture were inoculated to the right upper flank of each mouse by s.c. injection.
Tumor volume measurement was started at day 14 after tumor cell inoculation and performed twice weekly. The longest longitudinal diameter as length and the widest transverse diameter as width were measured by using a digital caliper. Tumor volume (TV) were then calculated by the formula: TV=[length×(width)^2]/2 and were analyzed in Excel.
The treatment was started when average tumor size reaches ˜400, 200 and 150 mm^3 for NCI-H929 tumor xenografts in Experiment I, III and IV, respectively, or ˜240 mm^3 for OPM2 tumor xenograft in Experiment I.
Mice were euthanized when tumor size reached 2000 mm^3.
After tumor-bearing mice were randomized, anti-BCMA antibody (BCMA-AB1 or BCMA-AB2), anti-BCMA antibody conjugate with Compound 3 (BCMA-AB1-3 or BCMA-AB2-3) or iso-type antibody conjugate with Compound 3 (iso-3) diluted in PBS were administered to mice through i.p. injections. Treatment regimens included 8 mg/kg once, 4 mg/kg Q1W×2 and 2 mg/kg biw×4 of anti-BCMA-AB1 or anti-BCMA-AB1-Compound 3 in Experiment I (FIG. 3); 2 mg/kg biw×4 and 0.67 mg/kg biw×4 of anti-BCMA-AB1 or anti-BCMA-AB1-Compound 3 in Experiment II (FIG. 4); 1, 2, 4, and 8 mg/kg once of anti-BCMA-AB1-Compound 3 or iso-3 in Experiment III (FIG. 5); and 4 mg/kg biw×4 of anti-BCMA-AB2 or 2 and 4 mg/kg biw×4 of anti-BCMA-AB2-Compound 3 in Experiment IV (FIG. 6).
Raw data of tumor measurements were analyzed in Excel. Tumor growth curves were plotted using GraphPad Prism 8.0 software and values were presented as mean t SEM.

Molecule | tumor regression / elimination
B1 | induced dramatic and prolonged tumor regressions and eliminated all tumors in about two weeks after initial treatments

same assay, conditions: Experiment IV, FIG. 6; i.p.; 2 and 4 mg/kg biw×4

Molecule | tumor growth
B1 | significantly inhibited tumor growth

molecular target: T1, Human BCMA (B Cell Maturation Antigen); test: cell-based or functional assay; settings: not given

Molecule | EC50 of cell viability (Cell Titer-Glo), MM.1R (BCMA+) cells, 4-day assay [nM] | EC50 of cell viability (Cell Titer-Glo), NCI-H929 (BCMA+) cells, 4-day assay [nM]
B2 | > 1000 | 13.1
B3 | 20.5 | 3.04
B4 | 16.6 | 2.38
B5 | 37.7 | 2.64
B6 | 348 | 5.15

system: BCMA-positive NCI-H929; test: In vitro cytotoxicity assay (CellTiter-Glo 2.0, 384-well), Example B2; type: cell-based, human; settings: 5-day assays, FIG. 8
Description: (§1) The in vitro efficacies of ADCs anti-BCMA-Compound 50, anti-BCMA-Compound 51, anti-BCMA-Compound 52, and anti-BCMA-Compound 53, were compared to anti-BCMA-Compound 3. Anti-BCMA-AB1 clone was conjugated with compounds 50, 51, 52, 53 or 3 and the ADCs were evaluated using the following human cancer cell lines: BCMA-negative K562 and BCMA-positive NCI-H929, purchased from the American Type Culture Collection (ATCC; Manassas, VA).
(§2) Cell Culture Method: The cell lines were cultured in RPMI-1640 medium (Catalog #10-041-CV: Corning) supplemented with 10-20% fetal bovine serum (FBS; Catalog #MT35011CV; Corning) and 1× penicillin-streptomycin (Catalog #30-002-Cl, Corning) and maintained at 37° C. in a 5% C02 humidified environment. Viable cell counts were made by Trypan blue exclusion using a Countess or Countess II automated cell counter.
(§3) The in vitro assays were performed as follows: All cells were harvested by removal of a portion of the cell culture suspension followed by centrifugation at 300 g for 5 minutes, followed by resuspension in cell culture medium (described above in Cell Culture method), viable cell count (as described above in Cell Culture method), and then seeded into 384-well white wall clear bottom plates (Catalog #3765, Corning) at a density of 2,500 cells/well in growth media. Plates were maintained at 37° C. The outer wells of plates contained medium only and were used for background subtraction for the cell viability assay. Working solutions of test articles were prepared at 2× final concentrations with 5-fold serial dilutions in complete growth medium. Cell treatment was performed in either technical triplicates or duplicates and maintained at 37° C. for 120-hour assay. After treatment, cell viability was determined by CellTiter-Glo 2.0 assay (Catalog #G9243; Promega; Madison, WI, USA) based on the manufacturer's instructions. CellTiter Glo reagent reacts with ATP in metabolically active cells to give a luminescent readout that is directly proportional to the number of viable cells. Briefly, plates were removed from the incubator and equilibrated to room temperature before addition of CellTiter Glo reagent. Luminescence was measured using a Tecan Spark microplate reader (Tecan; Mannedorf, Switzerland).
(§4) Data Analysis: For Cytotoxicity assays, raw luminescence data was background subtracted with average luminescence from the outer wells containing medium only and normalized to untreated controls using Excel (Microsoft; Albuquerque, NM). Dose-response relationships and EC50 values were determined based on non-linear regression analysis of normalized data fit to a four-parameter logistic equation using GraphPad Prism 8.0.

Molecule | effect on NCI-H929 cell viability
B7 | dose-dependently reduced
B8 | dose-dependently reduced
B9 | dose-dependently reduced
B10 | dose-dependently reduced

same assay, conditions: NCI-H929

Molecule | decrease in potency, ADC-50 (C-lock linkage) relative to ADC-53 (PFP linkage) | enhanced potency compared to ADC-3 [fold]
B7 | more than 2 fold | –
B9 | – | ~2

same assay, conditions: Table 7; 120-hour (5-day) assay; AB1 clone

Molecule | EC50 [nM]
B7 | 0.76

same assay, conditions: comparison of linker chemistry among C-lock conjugations

Molecule | EC50 order of magnitude
B7 | sub-nanomolar
B8 | single digit nanomolar
B9 | sub-nanomolar

system: BCMA-negative K562; test: as above; type: cell-based, human; settings: 5-day assays, FIG. 8
Description: as §1, §2, §3, §4

Molecule | activity against K562 cells
B7 | did not show activity
B8 | did not show activity
B9 | did not show activity
B10 | did not show activity

molecular target: T1, Human BCMA (B Cell Maturation Antigen); test: cell-based or functional assay; settings: not given; remark: another data set of the same source

Molecule | EC50 of cell viability (Cell Titer-Glo), MM.1R (BCMA+) cells, 5-day assay [nM] | EC50 of cell viability (Cell Titer-Glo), NCI-H929 (BCMA+) cells, 5-day assay [nM]
B11 | 1.02 | 0.168
B12 | 0.987 | 0.316

molecular target: T1, Human BCMA (B Cell Maturation Antigen); test: cell-based or functional assay; settings: not given; remark: another data set of the same source

Molecule | EC50 of cell viability (Cell Titer-Glo), MM.1R (BCMA+) cells [nM] | EC50 of cell viability (Cell Titer-Glo), NCI-H929 (BCMA+) cells [nM]
B13 | 55.3 | 7.31
B14 | > 1000 | 59
B15 | 143 | 10
B16 | 129 | 9.44
B17 | 259 | 19.4
B18 | > 1000 | 29.7
